The source of these data is publication PMC2857867 (The FASEB Journal, 2010).

First the molecules themselves.
B1: mIL-10 (ligand)
chain: SRGQYSREDNNCTHFPVGQSHMLLELRTAFSQVKTFFQTKDQLDNILLTDSLMQDFKGYLGCQALSEMIQFYLVEVMPQAEKHGPEIKEHLNSLGEKLKTLRMRLRRCHRFLPCENKSKAVEQVKSDFNKLQDQGVYKAMNEFDIFINCIEAYMMIKMKS
B2: mIFNβ (ligand)
chain: INYKQLQLQERTNIRKCQELLEQLNGKINLTYRADFKIPMEMTEKMQKSYTAFAIQEMLQNVFLVFRNNFSSTGWNETIVVRLLDELHQQTVFLKTVLEEKQEERLTWEMSSTALHLKSYYWRVQRYLKLMKYNSYAWMVVRAEIFRNFLIIRRLTRNFQN
B3: mIL-28A (ligand)
chain: DPVPRATRLPVEAKDCHIAQFKSLSPKELQAFKKAKDAIEKRLLEKDLRCSSHLFPRAWDLKQLQVQERPKALQAEVALTLKVWENMTDSALATILGQPLHTLSHIHSQLQTCTQLQATAEPRSPSRRLSRWLHRLQEAQSKETPGCLEASVTSNLFRLLTRDLKCVANGDQCV
B4: hIL-28A (ligand)
chain: VPVARLHGALPDARGCHIAQFKSLSPQELQAFKRAKDALEESLLLKDCRCHSRLFPRTWDLRQLQVRERPMALEAELALTLKVLEATADTDPALVDVLDQPLHTLHHILSQFRACIQPQPTAGPRTRGRLHHWLYRLQEAPKKESPGCLEASVTFNLFRLLTRDLNCVASGDLCV
B5: mIFNα-A (ligand)
chain: CDLPHTYNLRNKRALKVLAQMRRLPFLSCLKDRQDFGFPLEKVDNQQIQKAQAIPVLRDLTQQTLNLFTSKASSAAWNATLLDSFCNDLHQQLNDLQTCLMQQVGVQEPPLTQEDALLAVRKYFHRITVYLREKKHSPCAWEVVRAEVWRALSSSVNLLPRLSEEKE

One experiment deals with T1, VACV strain WR IFNα/βBP B18 (vaccinia virus strain Western Reserve, UniProt P25213 20-351). Put plainly: SPR.
For the molecule B1, the binding result is listed as “binds”.

The target in the next experiment is T1, VACV strain WR IFNα/βBP B18. Kind of experiment: SPR. The source holds these as a separate data set. (In general: In SPR one partner is held on a chip, and binding of the other changes the refractive index at the surface.)
B2: the Kd stood at 3.2 nM, the koff amounted to 0.000333 s⁻¹ and the kon was 104000 M⁻¹ s⁻¹.

Regarding B3, the Kd worked out at 13.4 nM, the koff was 0.0112 s⁻¹ and the kon is 832000 M⁻¹ s⁻¹.

B4 yielded a Kd of 14.9 nM, a koff of 0.00364 s⁻¹ and a kon of 245000 M⁻¹ s⁻¹.

Turning to B5, the Kd was determined as 0.455 nM, the koff stood at 0.000784 s⁻¹ and the kon turned out to be 1.72e+06 M⁻¹ s⁻¹.

In general, Kd refers to the concentration at which binding is half-saturated. Lower therefore signals a tighter complex. Usually koff stands for a measure of how fast the partners let go of each other. What is called kon is the rate constant with which the complex forms. Read a low kon as slow association.
